Experimental data as given in patent publication US20160264649A1.

Assays:
Test in all cases: cell-based or functional assay
[1] = target: HIV-1 MGRM-D-020 Env (HIV-1)
[2] = target: HIV-1 MGRM-G-006 Env (HIV-1)
[3] = target: HIV-1 MGRM-D-008 Env (HIV-1)
[4] = target: HIV-1 MGRM-AG-012 Env (HIV-1)
[5] = target: HIV-1 MGRM-D-005 Env (HIV-1)
[6] = target: HIV-1 92UG005 Env (HIV-1)
[7] = target: HIV-1 MGRM-D-021 Env (HIV-1)
[8] = target: HIV-1 MGRM-G-016 Env (HIV-1)
[9] = target: HIV-1 MGRM-AE-004 Env (HIV-1)
[10] = target: HIV-1 MGRM-G-028 Env (HIV-1)
[11] = target: HIV-1 MGRM-F1-020 Env (HIV-1)
[12] = target: aMLV envelope (negative control pseudovirus)
[13] = target: HIV-1 LAVIC_18 Env on pseudovirus (HIV-1)
[14] = target: HIV-1 MGRM-C-005 Env on pseudovirus (HIV-1)
[15] = target: HIV-1 MGRM-G-017 Env (HIV-1)
[16] = target: HIV-1 MGRM-F1-004 Env (HIV-1)
HIV-1 NL43 Env (HIV-1) = target: HIV-1 NL43 Env (HIV-1)
[17] = target: HIV-1 6535.3 (Acute) Env on pseudovirus (HIV-1)
[18] = target: HIV-1 MGRM-C-004 Env on pseudovirus (HIV-1)
[19] = target: HIV-1 JRFL Env on pseudovirus (HIV-1)
[20] = target: HIV-1 MGRM-Chronic-B-008 Env on pseudovirus (HIV-1)
[21] = target: HIV-1 MGRM-D-022 Env (HIV-1)
[22] = target: HIV-1 APV_17 Env on pseudovirus (HIV-1)
[23] = target: HIV-1 MGRM-C-006 Env on pseudovirus (HIV-1)
[24] = target: HIV-1 98IN022 Env on pseudovirus (HIV-1)
HIV-1 APV-6 Env (HIV-1) = target: HIV-1 APV-6 Env (HIV-1)
[25] = target: HIV-1 MGRM-AG-013 Env (HIV-1)
[26] = target: HIV-1 93RW029 Env (HIV-1)
[27] = target: HIV-1 92RW026 Env (HIV-1)
[28] = target: HIV-1 92RW020 Env (HIV-1)
[29] = target: HIV-1 92RW024 Env (HIV-1)
[30] = target: HIV-1 MGRM-A-013 Env (HIV-1)
[31] = target: HIV-1 MGRM-A-007 Env (HIV-1)
[32] = target: HIV-1 MGRM-A-003 Env (HIV-1)
[33] = target: HIV-1 92UG037 Env (HIV-1)
[34] = target: HIV-1 92RW009 Env (HIV-1)
[35] = target: HIV-1 MGRM-A-008 Env (HIV-1)
[36] = target: HIV-1 MGRM-A-004 Env (HIV-1)
[37] = target: HIV-1 MGRM-A-001 Env (HIV-1)
[38] = target: HIV-1 MGRM-A-014 Env (HIV-1)
[39] = target: HIV-1 MGRM-A-011 Env (HIV-1)
[40] = target: HIV-1 94KE105 Env (HIV-1)
[41] = target: HIV-1 93UG077 Env (HIV-1)
[42] = target: HIV-1 94UG103 Env (HIV-1)
HIV-1 VLGCA1 Env (HIV-1) = target: HIV-1 VLGCA1 Env (HIV-1)
[43] = target: HIV-1 92UG031 Env (HIV-1)
[44] = target: HIV-1 MGRM-A-010 Env (HIV-1)
[45] = target: HIV-1 92RW021 Env (HIV-1)
[46] = target: HIV-1 MGRM-A-012 Env (HIV-1)
[47] = target: HIV-1 MGRM-A-002 Env (HIV-1)
[48] = target: HIV-1 92RW008 Env (HIV-1)
[49] = target: HIV-1 MGRM-A-009 Env (HIV-1)
[50] = target: HIV-1 MGRM-A-006 Env (HIV-1)
[51] = target: HIV-1 MGRM-A-005 Env (HIV-1)

Question: Which results are given for 4E10 (antibody)?
Answer: IC50 (µg/ml), pseudovirus neutralization [1]: > 50 µg/mL; IC50 (µg/ml), pseudovirus neutralization [2]: 1.23 µg/mL; IC50 (µg/ml), pseudovirus neutralization [3]: 42.9 µg/mL; IC50 (µg/ml), pseudovirus neutralization [4]: 0.86 µg/mL; IC50 (µg/ml), pseudovirus neutralization [5]: 35.2 µg/mL; IC50 (µg/ml), pseudovirus neutralization [6]: 7.46 µg/mL; neutralization IC50 [6]: 8.86 µg/mL; neutralization IC90 [6]: > 50 µg/mL; IC50 (µg/ml), pseudovirus neutralization [7]: 13.3 µg/mL; IC50 (µg/ml), pseudovirus neutralization [8]: 1.02 µg/mL; IC50 (µg/ml), pseudovirus neutralization [9]: 1.27 µg/mL; IC50 (µg/ml), pseudovirus neutralization [10]: 6.32 µg/mL; IC50 (pseudovirus neutralization) [11]: 0.66 µg/mL; IC50 (pseudovirus neutralization) [12]: > 50 µg/mL; IC50 [13]: > 50 µg/mL; IC50 [14]: 16.4 µg/mL; IC50 (µg/ml), pseudovirus neutralization [15]: 1.14 µg/mL; IC50 (pseudovirus neutralization) [16]: 2.74 µg/mL; neutralization IC50 (HIV-1 NL43 Env (HIV-1)): 4.95 µg/mL; neutralization IC90 (HIV-1 NL43 Env (HIV-1)): 29.6 µg/mL; IC50 [17]: 1.23 µg/mL; IC50 [18]: 24.2 µg/mL; IC50 [19]: 18.9 µg/mL; IC50 [20]: 16.7 µg/mL; IC50 (µg/ml), pseudovirus neutralization [21]: 16.9 µg/mL; IC50 [22]: 10.5 µg/mL; IC50 [23]: 4.94 µg/mL; IC50 [24]: 0.53 µg/mL; neutralization IC50 (HIV-1 APV-6 Env (HIV-1)): 0.4 µg/mL; IC50 (µg/ml), pseudovirus neutralization [25]: 2.61 µg/mL; neutralization IC50 [26]: 15.5 µg/mL; neutralization IC50 [27]: 12.9 µg/mL; neutralization IC50 [28]: 4.54 µg/mL; neutralization IC50 [29]: 8.88 µg/mL; neutralization IC50 [30]: 1.46 µg/mL; neutralization IC50 [31]: 1.82 µg/mL; neutralization IC50 [32]: 5.94 µg/mL; neutralization IC50 [33]: 8.84 µg/mL; neutralization IC50 [34]: > 50 µg/mL; neutralization IC50 [35]: 7.59 µg/mL; neutralization IC50 [36]: 3.14 µg/mL; neutralization IC50 [37]: 15.1 µg/mL; neutralization IC50 [38]: 1.74 µg/mL; neutralization IC50 [39]: 2.88 µg/mL; neutralization IC50 [40]: 7.63 µg/mL; neutralization IC50 [41]: 10.6 µg/mL; neutralization IC50 [42]: 4.97 µg/mL; neutralization IC50 (HIV-1 VLGCA1 Env (HIV-1)): 4.58 µg/mL; neutralization IC50 [43]: 4.94 µg/mL; neutralization IC50 [44]: 14.4 µg/mL; neutralization IC50 [45]: 4.87 µg/mL; neutralization IC50 [46]: 4.27 µg/mL; neutralization IC50 [47]: 6.45 µg/mL; neutralization IC50 [48]: 14.5 µg/mL; neutralization IC50 [49]: 12 µg/mL; neutralization IC50 [50]: 9.87 µg/mL; neutralization IC50 [51]: 4.09 µg/mL

Question: Which results are given for 1496_C09 (PG9) (TCN-109) (antibody)?
Answer: IC50 (µg/ml), pseudovirus neutralization [1]: 2.03 µg/mL; IC50 (µg/ml), pseudovirus neutralization [2]: 0.51 µg/mL; IC50 (µg/ml), pseudovirus neutralization [3]: 6.86 µg/mL; IC50 (µg/ml), pseudovirus neutralization [4]: 1.37 µg/mL; IC50 (µg/ml), pseudovirus neutralization [5]: 0.59 µg/mL; IC50 (µg/ml), pseudovirus neutralization [8]: 0.4 µg/mL; IC50 (µg/ml), pseudovirus neutralization [9]: 0.01 µg/mL; IC50 (pseudovirus neutralization) [11]: 4.55 µg/mL; IC50 [13]: 0.1 µg/mL; IC50 [14]: 2.98 µg/mL; IC50 (µg/ml), pseudovirus neutralization [15]: 0.03 µg/mL; IC50 [17]: 0.22 µg/mL; IC50 [18]: 1.18 µg/mL; IC50 [20]: 6.66 µg/mL; IC50 [22]: 14.6 µg/mL; IC50 [23]: 0.23 µg/mL; IC50 [24]: 0.006 µg/mL; neutralization IC50 (HIV-1 APV-6 Env (HIV-1)): 0.0869 µg/mL; neutralization IC90 (HIV-1 APV-6 Env (HIV-1)): 1.96 µg/mL; IC50 (µg/ml), pseudovirus neutralization [25]: 0.23 µg/mL; neutralization IC50 [26]: 1.19 µg/mL; neutralization IC50 [27]: 0.27 µg/mL; neutralization IC50 [28]: 0.08 µg/mL; neutralization IC50 [29]: 0.18 µg/mL; neutralization IC50 [30]: 0.16 µg/mL; neutralization IC50 [31]: 0.37 µg/mL; neutralization IC50 [32]: 0.65 µg/mL; neutralization IC50 [34]: 0.03 µg/mL; neutralization IC50 [38]: 0.62 µg/mL; neutralization IC50 [40]: 29.6 µg/mL; neutralization IC50 [42]: 0.24 µg/mL; neutralization IC50 (HIV-1 VLGCA1 Env (HIV-1)): 0.07 µg/mL; neutralization IC50 [43]: 3.08 µg/mL; neutralization IC50 [45]: 0.05 µg/mL; neutralization IC50 [46]: 11.2 µg/mL; neutralization IC50 [48]: 0.01 µg/mL; neutralization IC50 [49]: 0.03 µg/mL
